Assay results published in paper doi:10.1101/2025.08.30.673231.
Several values for one entry are separate records, joined by “and”; a condition that tells them apart may be missing. Equal values may be shown once.

Assays:
[1] = molecular target: 6xHis-GST-tagged Pichia pastoris Pex5 full length (Pichia pastoris) (UniProt P33292); assay: BLI
[2] = molecular target: 6xHis-GST-tagged Pichia pastoris Pex5 NTD (residues 1-276) (Pichia pastoris) (UniProt P33292); assay: BLI
[3] = molecular target: 6xHis-GST-tagged Pichia pastoris Pex5 CTD (residues 259-576) (Pichia pastoris) (UniProt P33292); assay: BLI
[4] = molecular target: Pex5 NTD variants (the Pex5 single E57R mutant and the double mutants R45E/R48E and M61A/F64A); assay: BLI
[5] = molecular target: Pichia pastoris Pex5 full length (tag removed) (Pichia pastoris) (UniProt P33292); assay: ITC
[6] = molecular target: Pichia pastoris Pex5 NTD (residues 1-276, tag removed) (Pichia pastoris) (UniProt P33292); assay: SEC-SAXS
[7] = molecular target: Pichia pastoris Pex5 CTD (residues 259-576, tag removed) (Pichia pastoris) (UniProt P33292); assay: SEC-SAXS
[8] = molecular target: Pichia pastoris Pex5 full length (tag removed) (Pichia pastoris) (UniProt P33292); assay: SEC-SAXS

| Kd [1] [nM] | Kd [2] [nM] | Kd [3] [µM] | fold increase in KD against Pex5 NTD WT [4] | stoichiometry N [5] | stoichiometry N [6] | stoichiometry N [7] | stoichiometry N [8] | Substance |
| --- | --- | --- | --- | --- | --- | --- | --- | --- |
| 478 |  |  |  |  |  |  |  | Pichia pastoris Pex8 (ΔPTS1) (domain or fragment) |
| 78 | 683 | 4.4 | 6 fold and 8 fold | 1 | 1 | 1 | 1 | Pichia pastoris Pex8 (residues 33-713), N-terminally truncated (domain or fragment) |
